Test results reported in the DeepSol protein solubility set.

assay: soluble on expression in E. coli; label from the status in PepcDB or PDB records

Row | Sequence | soluble on expression in E. coli
1 | MSLKDSEVTVLGAGVAGLAVARALALRGAEVTVLEQAEAIREVGAGLQISPNGAAVLRALGLGDALEAASMRAQAVELRNGVGGDLVLKLDLARLRPGQGYHLMHRADLIDLLAQGAREAGVQIRLLQKIEAVDLGGPRPRLVTAQGAEYAPNLLIGADGLHSLVRAELNGPAQPFFTNQVAWRTVIPATPGEPVVAEVHMGEGRHLVSYPMRGGTVRNIVAVEERKRWVQEGWNLRDDPVDLRLAFAGFNGRVRHWLEQVPDVWLWGLFRHPVAHTWYRGHAAILGDAAHPTLPFLAQGANMALEDAWVLAECLARHSNIKGGLADYQARRVPRCCRVVQAANNNAWAYHLRSPIREIAHLGLRLGSRLLPGPTLRRFDWLYGYDVTAASLEHHHHHH | soluble
2 | MENRPVNIVLPKIENPILIEGYPGIGLVGHIAANFLAKELKMEVIGYVESSFIPPMSLILEGKPNPPLRFYGKDNIIIAVADIYLPPTLINEIAKEIANYLEQNKAEKVISLGGMGIGIFKDKFEVWGVGGTEEENKELQDLGVKILEYGSISGMSGKLLWEASRRGLKSYVILGETFGDRPDPRAAANVVEVLDRMLTLNVSVEPLLKEAEMIEEQLRKMHEQMEKARRSVEKQYETMYL | soluble
3 | MGSDKIHHHHHHMLLRKAFKFEIRPNGEQIRKIKQFCGCSRFVFNRALAWQNEQYEQDNNQKFSYSKLTSLLPQWKKELIWLKECHSQVLQQSLKDLESAFKNFFQQRADFPKFKKKGIKESFRFPQGCKIQPQNDRLYLPKIGWVRYRNSREIVGEVKNVTVSQKCGRFFVSIQTEFEHEIPMHKGGEIGIDMGIARFATLSNGEFFEPINAFKTYKGKLAKLQKQLKNKVKFSKNWQKLKEKIGKLHHKIANCRKDFLHKISTQISKNHAMIYVEDLQVANMSKSAKGTVEAHGKNVKQKSGLNRSIRDQSWFEFRRQLDYKTQWLGGFLVAVPAQNTSRTCPCCGHIAKENRETQAHFECVECGYTENADVVGAMNVLTRGQAIVQA | not soluble
4 | MSLSSGRTVPTRSHGLGKEGVSTTGASQVEFGDPELTARINDAMVQVEELLHTELSSGEDFLVDIVMHLTRAGGKRFRPMFALLASEFGEKPLSENVIKAAVVVEITHLATLYHDDVMDEASMRRGVPSANARWDNSVAILAGDILLAHASGLMSQLGTDTVAHFAETFGELVTGQMRETVGPRDTDPIEHYTNVIREKTGVLIASAGYLGAMHAGAAPEHIDALKNFGAAVGMIFQIVDDIIDIFSETHESGKTPGTDLREGVFTLPVLYALREDTPVGAELRDILTGPLEDDETVNHVLELLSQSGGRQAALDEVYRYMDIANAELDRLPDSTVKEALRNLATFTVKRVGEGHHHHHH | soluble
5 | MAIELYSQREIEKIRKASQIVAEVLHIVAENVKPGVSTWDLEMIARKETEKRGAKPAFLGYKPPFSDVRYPAALCISINDEVVHGLPKKEKVIKEGDVVSIDFGAIYDGYAGDSAITVIAGKGSPEAQKLLEATKEALYNAIEKALPGKKVGDITKAIHETAEKYGFKTILRYGGHGVGRKVHQEPFVPNNVKDIGKKNPRLRQGMVIAIEPMLSIGTEETVEDGDGWTVKTKDGSLAAHFEHTVAITKKGPVILTEL | soluble
6 | MSTSTVETGYGGRIRVTVARNDRDITSEVRTFLCNKENANKIIGLDTERSVVGGDSEYPPESKLVILELSDGQNCLIIPLPYVQGNKLPVSLTNFLNLPDFTFTGVGINKALKMLKSECGLTCKNAVDIGPSSPIYEDWDNDSLTEDQINLAAANAYLAFKVGNLIREAMY | soluble
7 | SDAMDKRLKIATIGGGSSYTPELVEGLIKRYHELPVGELWLVDIPEGKEKLEIVGALAKRMVEKAGVPIEIHLTLDRRRALDGADFVTTQFRVGGLEARAKDERIPLKYGVIGQETNGPGGLFKGLRTIPVILDIIRDMEELCPDAWLINFTNPAGMVTEAVLRYTKQEKVVGLCNVPIGMRMGVAKLLGVDADRVHIDFAGLNHMVFGLHVYLDGVEVTEKVIDLVAHPDRSGVTMKNIVDLGWEPDFLKGLKVLPCPYHRYYFQTDKMLAEELEAAKTKGTRAEVVQQLEKELFELYKDPNLAIKPPQLEKRGGAYYSDAACSLISSIYNDKRDIQPVNTRNNGAIASISAESAVEVNCVITKDGPKPIAVGDLPVAVRGLVQQIKSFERVAAEAAVTGDYQTALVAMTINPLVPSDTIAKQILDEMLEAHKEYLPQFFKQAKATAGN | soluble
8 | MGHHHHHHSHMPKVKRSRKAPQDGWELIEPTLDQLDQKMREAETEPHEGKRKVESLWPIFRIHHQKTRYIFDLFYKRKAYSRELLDICYKEGLADKNLLAKWKKQGIGNLCCLRCIQTRDTNFGTNCICRVPKSKLEVGRIIECTHCGCRGCSG | not soluble
9 | SRMRRYKSYFDWFDRQELHSMFQIAVPSVLQQSTVSIGMMIVQAVVNPFGTQALAGYAATMRVENVFSLIFVSIGNAVSPYVSQNLGANKPQRIKKGYRAA | not soluble
10 | MCSHYQALKDQERMRKYFAAHPSAEVPADMWPRYMGAFIRRPLEWDSGDEAVPEREAATGRWGMIPPGTRPEKLAEASKKNTSNARSETAHQLWTFRNAWAKAQHCIIPADAIYEPDWRSGKAVPTRFTRADGAPLGIAGLWDRYRNAAGEWIDSYTMLTINADDDPLFRDYHQAGKEKRMVVILPDGAYGDWLTAPATDTRDFLLPYPADRLVAAAVKLEHHHHHH | soluble
11 | MTTETIQSNANLAPLPPHVPEHLVFDFDMYNPSNLSAGVQEAWAVLQESNVPDLVWTRCNGGHWIATRGQLIREAYEDYRHFSSECPFIPREAGEAYDFIPTSMDPPEQRQFRALANQVVGMPVVDKLENRIQELACSLIESLRPQGQCNFTEDYAEPFPIRIFMLLAGLPEEDIPHLKYLTDQMTRPDGSMTFAEAKEALYDYLIPIIEQRRQKPGTDAISIVANGQVNGRPITSDEAKRMCGLLLVGGLDTVVNFLSFSMEFLAKSPEHRQELIERPERIPAACEELLRRFSLVADGRILTSDYEFHGVQLKKGDQILLPQMLSGLDERENACPMHVDFSRQKVSHTTFGHGSHLCLGQHLARREIIVTLKEWLTRIPDFSIAPGAQIQHKSGIVSGVQALPLVWDPATTKAVHHHHHH | soluble
12 | MPISIQQISYIHPDKEVLFSDLNFAISKGQKLGLVGNNGCGKSTLLQIIAGQLAPSSGVIVRPDDLYYIPQHFGQYDSLTIAQALQIDHKQKALHAILAGDASIENFSILNDDWNIEERSVAALDSWGLGQFPLSYPMNLLSGGEKTRVFLAGMDIHNPSVILMDEPTNHLDSSGRQRLYDWVEKWRSTLLVVSHDRTLLNLLPEICELEKHQISYYGGNYEFYKEQKTLMQEALQQRIEEKEKALRTARKVARETAERRDKQNVRGEKRNLKKGVPRIVLNGLQSKSEKSTAKLTGAHQEKAEKLTDERNQLRSSLSPTAALKTDFNNSGLHTGKILVTAEEINFGYHPDQPQLWQAPLSFQLKSGDRLRIEGGNGSGKTTLLKIITGQLQPLKGTLIQANFTYVYLNQEYSIINDRNSILEQAYAFNGRNLPEHEIKIILNRYLFPASEWDKSCRKLSGGEKMRLAFCCLMISNNMPDMFILDEPTNNLDIQSIEIITATIKNYAGTVIAISHDNYFIQEIGVEQSIFLS | not soluble
13 | MGHHHHHHSHMAFPPGALHPLPKRQALEKSNGTSAVFNPSVLHYQQALTSAQLQQHAAFIPTDNSEIISRNGMECQESALRITKHCYCTYYPVSSSIELPQTAC | not soluble
14 | MLNNPVGWFEIYVNDMERAKTFYETVLKVSLEEMPNPTSMPIKMLTFPSNMEKYGASGALVKMEGICAGGGGTLIYFSSDDCAVEQERIVAAGGQIHTPKMSIGEYGFITLAVDTEGNLFGLHSMQ | not soluble
15 | MGARKASAGASRAATAGVRISHPQRLIDPSIQASKLELAEFHARYADLLLRDLRERPVSLVRGPDGIGGELFFQKHAARLKIPGIVQLDPALDPGHPPLLQIRSAEALVGAVQMGSIEFHTWNASLANLERPDRFVLDLDPDPALPWKRMLEATQLSLTLLDELGLRAFLKTSGGKGMHLLVPLERRHGWDEVKDFAQAISQHLARLMPERFSAVSGPRNRVGKIFVDYLRNSRGASTVAAYSVRAREGLPVSVPVFREELDSLQGANQWNLRSLPQRLDELAGDDPWADYAGTRQRISAAMRRQLGRG | soluble
16 | VFPSNATFGMGDRVRKKSGAAWQGQIVGWYCTNLTPEGYAVESEAHPGSVHIYPVAALERIN | soluble
